Data set [1] concerns Control (peptide of Table 12).

Sequence of rhMMP3 (chain, as listed by the source): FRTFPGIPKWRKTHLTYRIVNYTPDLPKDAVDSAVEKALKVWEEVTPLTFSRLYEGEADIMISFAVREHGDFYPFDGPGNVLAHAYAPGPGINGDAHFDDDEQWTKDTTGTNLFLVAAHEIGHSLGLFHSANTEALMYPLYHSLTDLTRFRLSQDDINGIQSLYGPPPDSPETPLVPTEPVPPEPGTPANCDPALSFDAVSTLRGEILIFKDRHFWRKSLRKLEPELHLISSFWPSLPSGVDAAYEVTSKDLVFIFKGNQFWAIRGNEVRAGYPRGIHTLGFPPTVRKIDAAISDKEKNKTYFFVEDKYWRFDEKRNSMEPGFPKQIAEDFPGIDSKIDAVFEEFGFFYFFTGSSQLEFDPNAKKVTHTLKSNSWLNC
Sequence of rhMMP9 (chain, as listed by the source): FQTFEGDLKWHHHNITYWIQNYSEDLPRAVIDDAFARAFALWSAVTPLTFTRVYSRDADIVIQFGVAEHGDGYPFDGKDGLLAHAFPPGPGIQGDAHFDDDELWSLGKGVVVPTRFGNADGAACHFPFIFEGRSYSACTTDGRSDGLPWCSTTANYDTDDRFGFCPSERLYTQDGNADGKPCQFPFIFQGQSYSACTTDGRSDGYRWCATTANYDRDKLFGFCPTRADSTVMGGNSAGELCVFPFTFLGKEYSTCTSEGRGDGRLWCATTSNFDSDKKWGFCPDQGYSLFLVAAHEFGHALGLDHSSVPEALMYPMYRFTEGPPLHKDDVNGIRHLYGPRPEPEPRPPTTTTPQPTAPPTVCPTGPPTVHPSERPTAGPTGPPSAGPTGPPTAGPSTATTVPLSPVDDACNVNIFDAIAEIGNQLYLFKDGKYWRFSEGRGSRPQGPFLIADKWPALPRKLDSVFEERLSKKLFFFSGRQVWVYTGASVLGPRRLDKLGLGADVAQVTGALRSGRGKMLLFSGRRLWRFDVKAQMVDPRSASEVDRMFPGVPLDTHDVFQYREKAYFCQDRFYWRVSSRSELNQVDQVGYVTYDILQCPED
Sequence of rmMMP2 (chain, as listed by the source): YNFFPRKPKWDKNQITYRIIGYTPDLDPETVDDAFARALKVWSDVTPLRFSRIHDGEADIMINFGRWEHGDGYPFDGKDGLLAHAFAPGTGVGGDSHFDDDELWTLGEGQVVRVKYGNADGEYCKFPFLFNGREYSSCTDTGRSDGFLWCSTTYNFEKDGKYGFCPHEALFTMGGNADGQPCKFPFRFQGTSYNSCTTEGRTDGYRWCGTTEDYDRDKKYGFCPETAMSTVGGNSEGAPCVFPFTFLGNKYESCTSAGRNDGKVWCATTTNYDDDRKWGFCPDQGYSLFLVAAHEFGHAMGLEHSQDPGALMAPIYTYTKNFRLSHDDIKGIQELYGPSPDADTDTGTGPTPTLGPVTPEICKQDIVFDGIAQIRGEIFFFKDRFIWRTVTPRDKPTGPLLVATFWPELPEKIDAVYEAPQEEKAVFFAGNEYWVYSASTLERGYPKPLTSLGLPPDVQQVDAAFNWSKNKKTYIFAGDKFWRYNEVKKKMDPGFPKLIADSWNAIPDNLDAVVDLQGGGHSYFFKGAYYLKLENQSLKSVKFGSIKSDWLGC
Sequence of BI-055 (chain, as listed by the source, chain 1 of 2): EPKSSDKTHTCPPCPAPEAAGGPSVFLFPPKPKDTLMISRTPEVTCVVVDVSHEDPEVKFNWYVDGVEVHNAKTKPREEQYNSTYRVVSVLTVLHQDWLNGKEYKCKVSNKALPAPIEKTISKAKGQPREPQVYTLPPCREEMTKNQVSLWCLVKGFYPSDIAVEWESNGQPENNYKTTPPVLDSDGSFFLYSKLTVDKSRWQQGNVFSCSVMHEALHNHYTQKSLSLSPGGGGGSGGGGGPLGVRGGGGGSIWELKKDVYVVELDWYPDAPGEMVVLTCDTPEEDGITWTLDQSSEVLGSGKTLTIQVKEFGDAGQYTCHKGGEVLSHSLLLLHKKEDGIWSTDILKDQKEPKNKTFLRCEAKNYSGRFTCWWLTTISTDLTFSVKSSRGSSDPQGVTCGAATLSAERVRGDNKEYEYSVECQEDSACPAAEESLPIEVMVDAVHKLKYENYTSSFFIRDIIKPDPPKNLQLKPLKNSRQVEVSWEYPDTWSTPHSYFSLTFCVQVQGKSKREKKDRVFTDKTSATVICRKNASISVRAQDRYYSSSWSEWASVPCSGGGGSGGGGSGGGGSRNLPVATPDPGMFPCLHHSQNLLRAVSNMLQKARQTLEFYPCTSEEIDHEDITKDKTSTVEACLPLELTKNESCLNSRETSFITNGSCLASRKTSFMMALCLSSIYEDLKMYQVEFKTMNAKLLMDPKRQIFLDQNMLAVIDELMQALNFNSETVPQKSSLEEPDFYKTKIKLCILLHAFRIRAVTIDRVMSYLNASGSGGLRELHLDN
Sequence of BI-055 (chain, as listed by the source, chain 2 of 2): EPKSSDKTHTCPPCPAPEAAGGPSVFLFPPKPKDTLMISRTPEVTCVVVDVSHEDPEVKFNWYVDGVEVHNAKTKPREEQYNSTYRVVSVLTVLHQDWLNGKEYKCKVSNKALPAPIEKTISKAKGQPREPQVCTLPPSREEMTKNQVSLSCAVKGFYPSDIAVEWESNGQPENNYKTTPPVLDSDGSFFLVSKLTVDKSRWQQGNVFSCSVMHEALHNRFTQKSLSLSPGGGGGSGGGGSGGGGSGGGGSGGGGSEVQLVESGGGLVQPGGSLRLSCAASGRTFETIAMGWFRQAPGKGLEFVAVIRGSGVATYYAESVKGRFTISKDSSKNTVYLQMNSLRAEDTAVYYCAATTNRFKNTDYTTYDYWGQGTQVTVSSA
Sequence of BI-052 (chain, as listed by the source, chain 1 of 2): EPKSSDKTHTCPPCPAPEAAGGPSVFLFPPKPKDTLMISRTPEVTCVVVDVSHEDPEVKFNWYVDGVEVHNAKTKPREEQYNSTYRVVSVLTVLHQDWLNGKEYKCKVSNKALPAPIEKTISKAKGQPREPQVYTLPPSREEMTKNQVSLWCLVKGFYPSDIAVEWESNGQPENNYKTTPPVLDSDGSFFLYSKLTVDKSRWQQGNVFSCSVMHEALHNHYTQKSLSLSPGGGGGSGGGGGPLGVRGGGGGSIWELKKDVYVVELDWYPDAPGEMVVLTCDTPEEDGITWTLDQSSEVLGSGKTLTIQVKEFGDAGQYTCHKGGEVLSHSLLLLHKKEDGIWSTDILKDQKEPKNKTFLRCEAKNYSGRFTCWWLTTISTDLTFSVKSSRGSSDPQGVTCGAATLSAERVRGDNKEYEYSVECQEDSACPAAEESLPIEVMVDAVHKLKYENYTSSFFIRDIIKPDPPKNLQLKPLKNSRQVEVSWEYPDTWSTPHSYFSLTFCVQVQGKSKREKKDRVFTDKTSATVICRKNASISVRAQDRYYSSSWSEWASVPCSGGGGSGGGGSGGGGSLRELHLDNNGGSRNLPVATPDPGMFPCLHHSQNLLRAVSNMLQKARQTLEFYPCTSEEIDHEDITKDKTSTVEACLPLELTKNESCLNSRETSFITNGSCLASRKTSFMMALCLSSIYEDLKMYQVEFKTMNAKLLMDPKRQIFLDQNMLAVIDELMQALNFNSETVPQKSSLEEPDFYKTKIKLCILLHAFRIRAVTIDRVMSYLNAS
Sequence of BI-052 (chain, as listed by the source, chain 2 of 2): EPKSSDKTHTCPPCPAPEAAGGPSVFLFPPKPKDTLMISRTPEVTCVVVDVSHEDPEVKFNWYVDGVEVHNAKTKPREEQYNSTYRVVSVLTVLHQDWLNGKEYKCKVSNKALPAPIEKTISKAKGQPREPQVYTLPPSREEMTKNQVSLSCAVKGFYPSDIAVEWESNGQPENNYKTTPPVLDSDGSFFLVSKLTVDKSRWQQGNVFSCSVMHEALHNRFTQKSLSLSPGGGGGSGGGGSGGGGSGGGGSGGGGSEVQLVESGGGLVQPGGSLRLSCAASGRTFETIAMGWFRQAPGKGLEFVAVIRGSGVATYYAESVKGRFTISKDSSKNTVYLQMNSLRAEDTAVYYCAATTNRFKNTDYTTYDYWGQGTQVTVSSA
Sequence of BI-051 (chain, as listed by the source, chain 1 of 2): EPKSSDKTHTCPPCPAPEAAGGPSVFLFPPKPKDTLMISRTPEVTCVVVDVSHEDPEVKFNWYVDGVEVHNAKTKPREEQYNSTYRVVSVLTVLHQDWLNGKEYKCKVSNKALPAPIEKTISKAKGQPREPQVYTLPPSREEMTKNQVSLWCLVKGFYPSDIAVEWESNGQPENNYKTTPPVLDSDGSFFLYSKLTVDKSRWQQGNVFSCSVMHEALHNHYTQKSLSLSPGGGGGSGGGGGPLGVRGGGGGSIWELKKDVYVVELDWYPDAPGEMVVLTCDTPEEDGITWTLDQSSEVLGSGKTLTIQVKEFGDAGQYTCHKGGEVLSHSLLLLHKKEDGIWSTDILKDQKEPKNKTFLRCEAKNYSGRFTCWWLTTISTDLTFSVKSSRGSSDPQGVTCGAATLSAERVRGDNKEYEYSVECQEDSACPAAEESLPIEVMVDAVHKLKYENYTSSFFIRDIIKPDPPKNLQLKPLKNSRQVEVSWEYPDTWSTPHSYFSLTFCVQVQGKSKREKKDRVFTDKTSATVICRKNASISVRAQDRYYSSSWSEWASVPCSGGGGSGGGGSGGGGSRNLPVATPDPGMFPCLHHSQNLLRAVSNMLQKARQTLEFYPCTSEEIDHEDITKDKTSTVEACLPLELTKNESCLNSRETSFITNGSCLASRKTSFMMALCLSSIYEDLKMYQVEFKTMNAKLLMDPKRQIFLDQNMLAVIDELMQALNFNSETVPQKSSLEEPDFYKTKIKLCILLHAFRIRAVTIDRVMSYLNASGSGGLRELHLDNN
Sequence of BI-054 (chain, as listed by the source, chain 2 of 2): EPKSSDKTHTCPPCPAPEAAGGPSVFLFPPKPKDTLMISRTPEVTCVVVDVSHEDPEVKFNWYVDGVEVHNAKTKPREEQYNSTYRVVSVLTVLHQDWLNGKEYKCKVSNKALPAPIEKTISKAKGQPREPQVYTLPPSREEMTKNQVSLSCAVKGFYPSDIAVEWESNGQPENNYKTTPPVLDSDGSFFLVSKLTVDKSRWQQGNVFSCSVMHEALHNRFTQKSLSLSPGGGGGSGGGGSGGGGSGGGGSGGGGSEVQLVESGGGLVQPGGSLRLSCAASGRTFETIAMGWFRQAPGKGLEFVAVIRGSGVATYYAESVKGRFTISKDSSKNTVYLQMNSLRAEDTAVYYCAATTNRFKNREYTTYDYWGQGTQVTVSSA

rmMMP2: the Specific Activity came out at 10 pmol/min/µg in data set [1], 98.9 pmol/min/µg in the data set with Peptide 10, 165 pmol/min/µg in the data set on Peptide 5 (GPLGVRG) and 233 pmol/min/µg in the data set with Peptide 8.
Turning to rhMMP3, the Specific Activity came out at 10 pmol/min/µg in data set [1], 18.3 pmol/min/µg in the data set with Peptide 10, 14.2 pmol/min/µg in the data set with Peptide 5 (GPLGVRG) and 51.2 pmol/min/µg in the data set with Peptide 8.
Take rhMMP9: the “cleavage shown by SDS-PAGE” value in the data set with BI-050, in the data set with BI-051, in the data set on BI-052, with BI-054 and in the data set with BI-055 was “efficiently cleaved” throughout. The “cleavage by Western blot” value in the data set on BI-059 is recorded as “efficiently cleaved with the human tumor lysates to the level comparable to activated MMP9”. Besides, the Specific Activity in [1] was 10 pmol/min/µg; with Peptide 10, 63.6 pmol/min/µg; with Peptide 5 (GPLGVRG) it was 200 pmol/min/µg; with Peptide 8, 123 pmol/min/µg.

(Values after patent US20240262879.)
